Results on 34 molecules are retold here after paper PMC5454392, “Selective BET bromodomain inhibition as an antifungal therapeutic strategy” (Nature Communications, 2017).

Square brackets hold non-standard residues; d marks the D form. Ends that are not written are not given here. Arg(Me2a) = CN(C)C(=N)NCCC[C@H](N)C(=O)O; Lys(Me3) = C[N+](C)(C)CCCC[C@H](N)C(=O)O; Arg(Me2s) = CN=C(NC)NCCC[C@H](N)C(=O)O; pT = C[C@@H](OP(=O)(O)O)[C@H](N)C(=O)O; pS = N[C@@H](COP(=O)(O)O)C(=O)O; Lys(Me) = CNCCCC[C@H](N)C(=O)O; Me2a = not defined here

For the first assay, the target named is T1, CaBdf1 BD2 (GST-tagged, wild-type) (Candida albicans (strain SC5314 / ATCC …, UniProt Q5A4W8)).
T1 chain: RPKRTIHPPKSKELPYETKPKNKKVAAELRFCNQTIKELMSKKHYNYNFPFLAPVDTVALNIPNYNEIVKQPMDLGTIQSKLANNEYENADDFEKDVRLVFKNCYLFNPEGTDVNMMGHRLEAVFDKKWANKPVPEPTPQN
Briefly: histone peptide array (Active Motif MODified), 1 uM GST-tagged bromodomain, anti-GST detection, normalized mean intensity.
SGRGKGGKGLGKGGAKRHR (S G Rme2a G K G G Kac G L G K G G A K R H R): the binding score amounted to 0.0074.

In turn, PRKQLATKAARK(Ac)[pS]APATGG had a binding score of 0.00148.

In turn, ART[Lys(Me3)]QTARKSTGGKAPRKQ came in with a binding score of 0.00148.

SGRGKGGKGLGKGGAKRHR (S G Rme2a G Kac G G Kac G L G Kac G G A K R H R) yielded a binding score of 0.375.

The molecule ARTKQTARKSTGGKAPRKQ (A Rme2s T Kac Q T A Rme2a Kac S T G G K A P R K Q) gave a binding score of 0.00851.

A[Arg(Me2s)]TK(Ac)QTA[Arg(Me2a)][Lys(Me)]STGGKAPRKQ: the binding score was determined as 0.00296.

Take PRKQLATKAARK(Me2)[pS]APATGG: the binding score is 0.00074.

In turn, SGRGK(Ac)QGGKARAK(Ac)AKSRSS showed a binding score of 0.0859.

Consider ARTKQTARKSTGGKAPRKQ (A R T Kac Q T A Rme2s Kme2 S T G G K A P R K Q), for which the binding score was 0.00296.

Consider ARTKQTA[Arg(Me2a)][Lys(Me)]S[pT]GGKAPRKQ, for which the binding score was 0.00259.

As to PDPAK(Ac)SAPAPKKGSKKAVT, the binding score turned out to be 0.

In the case of SGRGKGGKGLGKGGAKRHR (S G Rme2s G Kac G G Kac G L G Kac G G A K R H R), the binding score came out at 0.332.

As to A[Arg(Me2s)]T[Lys(Me)]QTA[Arg(Me2a)][Lys(Me3)]STGGKAPRKQ, the binding score came to 0.00592.

Regarding ARTKQTARKSTGGKAPRKQ (A R T K Q T A R K pS T G G Kac A P R K Q), the binding score was found to be 0.0107.

With AR(me2s)TK(Me)QTARKSTGGKAPRKQ, the binding score worked out at 0.00037.

Molecule SGRGKGGKGLGKGGAKRHR (S G Rme2a G Kac G G K G L G K G G A K R H R) showed a binding score of 0.00703.

In the case of PRKQLATKAARKSAPATGG (P R K Q L A T K A A Rme2a Kme3 S A P A T G G), the binding score worked out at 0.00703.

ARTKQTARKSTGGKAPRKQ (A R T K Q T A Rme2s Kme2 S pT G G K A P R K Q): the binding score was 0.00259.

Molecule ARTKQTARKSTGGKAPRKQ (A Rme2s T Kac Q T A R Kme3 S T G G K A P R K Q) returned a binding score of 0.00259.

In the case of ARTK(Me)QTAR(me2s)K(Me)STGGKAPRKQ, the binding score worked out at 0.00592.

Take ARTKQTARKSTGGKAPRKQ (A R T Kac Q T A Rme2a Kac S T G G K A P R K Q): the binding score was 0.0126.

Regarding [pS]GRGKQGGK(Ac)ARAK(Ac)AKSRSS, the binding score was 0.00592.

For the molecule AR(Me2s)TK(Me)QTAR(Me2a)K(Me)STGGKAPRKQ (reading uncertain), the binding score came out at 0.00222.

For the molecule ARTKQTARKSTGGKAPRKQ (A Rme2s T Kme1 Q T A Rme2s Kac S T G G K A P R K Q), the binding score was 0.00555.

In the case of PRKQLATKAAR(Me2s)KSAPATGG, the binding score stood at 0.0037.

In turn, [pS]GRGKQGGKARAK(Ac)AKSRSS gave a binding score of 0.02.

ARTKQTARKSTGGKAPRKQ (A Rme2a T Kme3 Q T A Rme2a Kme3 S T G G K A P R K Q) registered a binding score of 0.00333.

In turn, ARTKQTARKSTGGKAPRKQ (A R T K Q T A R K pS T G G K A P R K Q) displayed a binding score of 0.00074.

As to PDPAKSAPAPKKG[pS]KKAVT, the binding score was found to be 0.00148.

As for A[Arg(Me2a)][pT][Lys(Me3)]QTARKSTGGKAPRKQ, the binding score was found to be 0.00074.

Molecule ARTKQTARKSTGGKAPRKQ (A R T Kme2 Q T A Rme2s Kac S T G G K A P R K Q) came in with a binding score of 0.00592.

Molecule SGRGKQGGK(Ac)ARAKAKSRSS registered a binding score of 0.00814.

Regarding PRKQLATKAAR(Me2a)K(Me)[pS]APATGG (reading uncertain), the binding score came out at 0.00703.

With PRKQLATKAAR(Me2a)K(Ac)[pS]APATGG (reading uncertain), the binding score worked out at 0.00222.

In a further assay the target is T2, CaBdf1 BD1 (GST-tagged, wild-type) (Candida albicans (strain SC5314 / ATCC …, UniProt Q5A4W8)).
T2 chain: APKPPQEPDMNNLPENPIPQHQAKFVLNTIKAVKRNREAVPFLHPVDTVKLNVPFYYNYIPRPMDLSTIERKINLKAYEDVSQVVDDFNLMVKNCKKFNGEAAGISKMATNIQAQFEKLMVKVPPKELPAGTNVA
The description is as above.
In turn, SGRGKGGKGLGKGGAKRHR (S G Rme2a G K G G Kac G L G K G G A K R H R) returned a binding score of 0.0218.

Take PRKQLATKAARK(Ac)[pS]APATGG: the binding score was 0.0029.

Turning to ART[Lys(Me3)]QTARKSTGGKAPRKQ, the binding score worked out at 0.00399.

Regarding SGRGKGGKGLGKGGAKRHR (S G Rme2a G Kac G G Kac G L G Kac G G A K R H R), the binding score was 0.236.

Turning to ARTKQTARKSTGGKAPRKQ (A Rme2s T Kac Q T A Rme2a Kac S T G G K A P R K Q), the binding score amounted to 0.0573.

Consider A[Arg(Me2s)]TK(Ac)QTA[Arg(Me2a)][Lys(Me)]STGGKAPRKQ, for which the binding score came to 0.00834.

Turning to PRKQLATKAARK(Me2)[pS]APATGG, the binding score is 0.0029.

As to SGRGK(Ac)QGGKARAK(Ac)AKSRSS, the binding score turned out to be 0.109.

Turning to ARTKQTARKSTGGKAPRKQ (A R T Kac Q T A Rme2s Kme2 S T G G K A P R K Q), the binding score is 0.00363.

The molecule ARTKQTA[Arg(Me2a)][Lys(Me)]S[pT]GGKAPRKQ yielded a binding score of 0.00471.

In turn, PDPAK(Ac)SAPAPKKGSKKAVT displayed a binding score of 0.00363.

As to SGRGKGGKGLGKGGAKRHR (S G Rme2s G Kac G G Kac G L G Kac G G A K R H R), the binding score was 0.175.

A[Arg(Me2s)]T[Lys(Me)]QTA[Arg(Me2a)][Lys(Me3)]STGGKAPRKQ had a binding score of 0.0058.

With ARTKQTARKSTGGKAPRKQ (A R T K Q T A R K pS T G G Kac A P R K Q), the binding score amounted to 0.0301.

Turning to AR(me2s)TK(Me)QTARKSTGGKAPRKQ, the binding score was determined as 0.00326.

For SGRGKGGKGLGKGGAKRHR (S G Rme2a G Kac G G K G L G K G G A K R H R), the binding score was 0.0105.

As for PRKQLATKAARKSAPATGG (P R K Q L A T K A A Rme2a Kme3 S A P A T G G), the binding score came to 0.00363.

Consider ARTKQTARKSTGGKAPRKQ (A R T K Q T A Rme2s Kme2 S pT G G K A P R K Q), for which the binding score is 0.00906.

On to ARTKQTARKSTGGKAPRKQ (A Rme2s T Kac Q T A R Kme3 S T G G K A P R K Q), for which the binding score worked out at 0.00616.

With ARTK(Me)QTAR(me2s)K(Me)STGGKAPRKQ, the binding score is 0.00689.

For ARTKQTARKSTGGKAPRKQ (A R T Kac Q T A Rme2a Kac S T G G K A P R K Q), the binding score was found to be 0.0464.

For [pS]GRGKQGGK(Ac)ARAK(Ac)AKSRSS, the binding score is 0.0642.

For AR(Me2s)TK(Me)QTAR(Me2a)K(Me)STGGKAPRKQ (reading uncertain), the binding score turned out to be 0.00435.

In the case of ARTKQTARKSTGGKAPRKQ (A Rme2s T Kme1 Q T A Rme2s Kac S T G G K A P R K Q), the binding score was determined as 0.0344.

In the case of PRKQLATKAAR(Me2s)KSAPATGG, the binding score was 0.00616.

For [pS]GRGKQGGKARAK(Ac)AKSRSS, the binding score is 0.0906.

ARTKQTARKSTGGKAPRKQ (A Rme2a T Kme3 Q T A Rme2a Kme3 S T G G K A P R K Q) returned a binding score of 0.00399.

On to ARTKQTARKSTGGKAPRKQ (A R T K Q T A R K pS T G G K A P R K Q), for which the binding score amounted to 0.00181.

Consider PDPAKSAPAPKKG[pS]KKAVT, for which the binding score worked out at 0.00326.

A[Arg(Me2a)][pT][Lys(Me3)]QTARKSTGGKAPRKQ: the binding score is 0.00725.

The molecule ARTKQTARKSTGGKAPRKQ (A R T Kme2 Q T A Rme2s Kac S T G G K A P R K Q) had a binding score of 0.0305.

Molecule SGRGKQGGK(Ac)ARAKAKSRSS showed a binding score of 0.0276.

PRKQLATKAAR(Me2a)K(Me)[pS]APATGG (reading uncertain) returned a binding score of 0.0029.

In turn, PRKQLATKAAR(Me2a)K(Ac)[pS]APATGG (reading uncertain) had a binding score of 0.0058.
